Literature values, collected in patent US20120245117A1, “METHODS OF TREATING SQUAMOUS CELL LUNG CANCER WITH 4-IODO-3-NITROBENZAMIDE IN COMBINATION WITH GEMCITABINE AND CARBOPLATIN” (priority 2011, published 2012).

System: SqCLC
Conditions: SqCLC patients; combination with carboplatin/paclitaxel; cited from earlier work

B1: CP-751,871: an anti-IGF-1R monoclonal antibody (antibody, chains of the INN, looked up)
heavy: EVQLLESGGGLVQPGGSLRLSCTASGFTFSSYAMNWVRQAPGKGLEWVSAISGSGGTTFYADSVKGRFTISRDNSRTTLYLQMNSLRAEDTAVYYCAKDLGWSDSYYYYYGMDVWGQGTTVTVSSASTKGPSVFPLAPCSRSTSESTAALGCLVKDYFPEPVTVSWNSGALTSGVHTFPAVLQSSGLYSLSSVVTVPSSNFGTQTYTCNVDHKPSNTKVDKTVERKCCVECPPCPAPPVAGPSVFLFPPKPKDTLMISRTPEVTCVVVDVSHEDPEVQFNWYVDGVEVHNAKTKPREEQFNSTFRVVSVLTVVHQDWLNGKEYKCKVSNKGLPAPIEKTISKTKGQPREPQVYTLPPSREEMTKNQVSLTCLVKGFYPSDIAVEWESNGQPENNYKTTPPMLDSDGSFFLYSKLTVDKSRWQQGNVFSCSVMHEALHNHYTQKSLSLSPG
light: DIQMTQFPSSLSASVGDRVTITCRASQGIRNDLGWYQQKPGKAPKRLIYAASRLHRGVPSRFSGSGSGTEFTLTISSLQPEDFATYYCLQHNSYPCSFGQGTKLEIKRTVAAPSVFIFPPSDEQLKSGTASVVCLLNNFYPREAKVQWKVDNALQSGNSQESVTEQDSKDSTYSLSSTLTLSKADYEKHKVYACEVTHQGLSSPVTKSFNRGEC
  response rate: ~78%
  toxicity: strong toxicity
